Test results published in patent US20150064751.

molecular target: cleavage control protein containing an enterokinase cleavage site (Asp-Asp-Asp-Asp-Lys)

| Protein | cleavage of the 48 kDa control protein into 32 and 16 kDa fragments (SDS-PAGE, Coomassie; periplasmic fraction, 30 C, 24 h) |
| --- | --- |
| periplasmically-targeted bovine enterokinase expressed with the DsbA periplasmic signal sequence (protein) IVGGSDSREGAWPWVVALYFDDQQVCGASLVSRDWLVSAAHCVYGRNMEPSKWKAVLGLHMASNLTSPQIETRLIDQIVINPHYNKRRKNNDIAMMHLEMKVNYTDYIQPICLPEENQVFPPGRICSIAGWGALIYQGSTADVLQEADVPLLSNEKCQQQMPEYNITENMVCAGYEAGGVDSCQGDSGGPLMCQENNRWLLAGVTSFGYQCALPNRPGVYARVPRFTEWIQSFLH | the periplasmically localized enterokinase is active in cleaving the target protein |
| periplasmically-targeted bovine enterokinase expressed with the OmpA periplasmic signal sequence (protein) IVGGSDSREGAWPWVVALYFDDQQVCGASLVSRDWLVSAAHCVYGRNMEPSKWKAVLGLHMASNLTSPQIETRLIDQIVINPHYNKRRKNNDIAMMHLEMKVNYTDYIQPICLPEENQVFPPGRICSIAGWGALIYQGSTADVLQEADVPLLSNEKCQQQMPEYNITENMVCAGYEAGGVDSCQGDSGGPLMCQENNRWLLAGVTSFGYQCALPNRPGVYARVPRFTEWIQSFLH | the periplasmically localized enterokinase is active in cleaving the target protein |
| periplasmically-targeted bovine enterokinase expressed with the MalE periplasmic signal sequence (protein) IVGGSDSREGAWPWVVALYFDDQQVCGASLVSRDWLVSAAHCVYGRNMEPSKWKAVLGLHMASNLTSPQIETRLIDQIVINPHYNKRRKNNDIAMMHLEMKVNYTDYIQPICLPEENQVFPPGRICSIAGWGALIYQGSTADVLQEADVPLLSNEKCQQQMPEYNITENMVCAGYEAGGVDSCQGDSGGPLMCQENNRWLLAGVTSFGYQCALPNRPGVYARVPRFTEWIQSFLH | the periplasmically localized enterokinase is active in cleaving the target protein |
